Source: patent publication US20140341888A1 (CORNING, published 2014)

Experiments:
[1] = target: T1, recombinant soluble hTNFSF13b (native) (human, UniProt Q9Y275 134-285); assay: SPR (BIAcore 2000), antibody captured by anti-human IgG Fc, hTNFSF13b from 50 nM, Langmuir 1:1 model
T1 construct: also called huTNFSF13b; Human TNFSF13b

EGFR-AP fusion protein = target: T2, EGFR-AP fusion protein (UniProt P00533 25-645); assay: SPR (BIAcore), EGFR-AP immobilized, antibody 1.5 nM to 100 nM
T2 construct: Immobilized on the BIAcore sensor chip; construct not described

T1 sequence (Q9Y275 134-285 limits assumed): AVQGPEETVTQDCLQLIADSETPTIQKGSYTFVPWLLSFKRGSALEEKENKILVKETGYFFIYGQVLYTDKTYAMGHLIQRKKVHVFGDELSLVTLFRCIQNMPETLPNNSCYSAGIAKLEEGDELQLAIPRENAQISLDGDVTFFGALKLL

Binder | Kd [1] | Kd (EGFR-AP fusion protein) | koff (EGFR-AP fusion protein) | kon (EGFR-AP fusion protein)
4A5-3.1.1-B4 (antibody, V domains shown) VH: QVQLQQWGAGLLKPSETLSLTCAVYGGSFSGYYWSWIRQPPGKGLEWIGEINHSGSTNYNPSLKSRVTISVDTSKNQFSLKLSSVTAADTAVYYCARGYYDILTGYYYYFDYWGQGTLVTVSS VL: EIVLTQSPATLSLSPGERATLSCRASQSVSRYLAWYQQKPGQAPRLLIYDASNRATGIPARFSGSGSGTDSTLTISSLEPEDFAVYYCQQRSNWPRTFGQGTKVEIKR | 38 µM |  |  | 
IMC-11F8 IgG (antibody, V domains shown) VH: QVQLQESGPGLVKPSQTLSLTCTVSGGSISSGDYYWSWIRQPPGKGLEWIGYIYYSGSTDYNPSLKSRVTMSVDTSKNQFSLKVNSVTAADTAVYYCARVSIFGVGTFDYWGQGTLVTVSS VL: EIVMTQSPATLSLSPGERATLSCRASQSVSSYLAWYQQKPGQAPRLLIYDASNRATGIPARFSGSGSGTDFTLTISSLEPEDFAVYYCHQYGSTPLTFGGGTKAEIK |  | 0.00032 µM | 0.00058 s⁻¹ | 1.86e+06 M⁻¹ s⁻¹
